Data published in US5854049.

Key:
[1] = biological target: native, full-length mature SK protein derived from Streptococcus equisimilus (nSK) (Streptococcus equisimilus)
[2] = biological target: rSK (fusion protein with maltose binding protein linked to the amino terminus of nSK) (Streptococcus equisimilis (SK part))
[3] = biological target: purified human Glu-plasminogen (American Diagnostica, 98% Glu-type plasminogen) (human) (UniProt P00747)
[4] = biological target: purified human Glu-plasminogen (American Diagnostica, 98% Glu-type plasminogen) (human) (UniProt P00747); remark: listed apart in the source

Substance | cleavage of SK by plasmin after mixing with excess Glu-plasminogen (immunoblot with monoclonal anti-SK antibodies) [1] [s] | cleavage of SK by plasmin after mixing with excess Glu-plasminogen (immunoblot with monoclonal anti-SK antibodies) [2] [min] | amidolytic kinetic parameters of the SK-PAC on S2251: Km (µM), Kcat (S^-1), kcat/Km (µM^-1 S^-1) [3] [µM^-1 S^-1] | lag phase of plasminogen activation (S2251 hydrolysis, absorption at 405 nm, 21° C.) [4] [s]
plasmin (from UniProt P00747) (enzyme) | < 30 | 1 | – | –
native, full-length mature SK protein derived from Streptococcus equisimilus (nSK) | – | – | 0.226 | < 50
